Source: patent US20170369576A1 (UBI US, published 2017)
Several values for one entry are separate records, joined by “and”; a condition that tells them apart may be missing. Identical values can stand only once.

Tests used:
[1] = molecular target: T1, human CD4, membrane-bound on cells (HPB-ALL cells, blood/PBMC CD4+ T cells, assay target cells) (human, UniProt P01730 26-458); assay: FACS, fresh blood CD4+ T cells, mean of six subjects; free CD4 sites left by dB4 detected by dB4C7-Alexa (250 ng/mL)
T1 construct: whole, on cells; Target on human HPB-ALL T-leukemic cells, human blood CD4+ T lymphocytes and CD4+ indicator cells of the neutralisation assays; also called CD4 receptor; surface CD4

[2] = molecular target: T1, human CD4, membrane-bound on cells …; assay: FACS, fresh blood CD4+ T cells of subject M1; bound dB4 detected by goat anti-hIgG-FITC
Description: (§1) The samples were calibrated with reference beads for fluorescence reading.

[3] = molecular target: T1, human CD4, membrane-bound on cells …; assay: FACS direct binding to HPB-ALL cells, on ice 1 h, goat F(ab)2 anti-huIgG Fc-FITC; EC50 by % MFI, exp. 2
Protocol: (§2) On V-bottomed microplates, aliquots of 2×10⁵ cells in 0.1 mL per well were added, centrifuged, and liquid discarded. […] This step was repeated one more time. The cells from the three incubations (passages) were investigated. […] The cells were washed once and the liquid discarded after centrifugation. To each well, aliquots of 200 μL of binding buffer were added and transferred to microdilution tubes for flow cytometric analysis. The binding intensity (mean fluorescence intensity, MFI), based on an inlet of 5,000 cells per sample, was read on FACS.
(§3) The absolute MFI values were also normalized to % MFI for purpose of between-passage comparison.

[4] = molecular target: T1, human CD4, membrane-bound on cells …; assay: FACS, fresh blood CD4+ T cells of subject F3; bound dB4 detected by goat anti-hIgG-FITC
Description: as §1

[5] = molecular target: T1, human CD4, membrane-bound on cells …; assay: saturation binding to HPB-ALL cells on ice 1 h; free antibody by ELISA, bound by subtraction, curve fit; exp. 1
Protocol: (§4) The resultant saturating free-vs.-bound concentration profiles were analyzed on SigmaPlot by curve-fitting based on the equation, [B]=Bmax·{[F]/([F]+Kd)}, where the respective [B] and [F] stand for the bound and free concentrations.
(§5) The binding study was conducted at cold and/or under 0.05% azide to avoid a potential endocytosis of the ligand-receptor complexes. Incubation at room temperature or 37° C. could allow a reaction plateau to be reached sooner. […] The supernatants were collected for determination by ELISA of the free drug concentrations, and the bound fractions were obtained by subtraction from the total.

[6] = molecular target: T1, human CD4, membrane-bound on cells …; assay: FACS direct binding to HPB-ALL cells, on ice 1 h, goat F(ab)2 anti-huIgG Fc-FITC; EC50 by MFI, exp. 3
Protocol: as §2, §3

[7] = molecular target: T1, human CD4, membrane-bound on cells …; assay: FACS direct binding to HPB-ALL cells, on ice 1 h, goat F(ab)2 anti-huIgG Fc-FITC; EC50 by MFI, exp. 2
Protocol: as §2, §3

[8] = molecular target: T1, human CD4, membrane-bound on cells …; assay: FACS direct binding to HPB-ALL cells, on ice 1 h, goat F(ab)2 anti-huIgG Fc-FITC; EC50 by MFI, exp. 1
Protocol: as §2, §3

[9] = molecular target: T1, human CD4, membrane-bound on cells …; assay: saturation binding to HPB-ALL cells on ice 1 h; free antibody by ELISA, bound by subtraction, curve fit; exp. 3
Protocol: as §4, §5

[10] = molecular target: T1, human CD4, membrane-bound on cells …; assay: FACS, fresh blood CD4+ T cells of subject F2; bound dB4 detected by goat anti-hIgG-FITC
Description: as §1

[11] = molecular target: T1, human CD4, membrane-bound on cells …; assay: FACS, fresh blood CD4+ T cells, mean of six subjects; bound dB4 detected by goat anti-hIgG-FITC
Description: as §1

[12] = molecular target: T1, human CD4, membrane-bound on cells …; assay: FACS, fresh blood CD4+ T cells of subject M1; free CD4 sites left by dB4 detected by dB4C7-Alexa (250 ng/mL)
[13] = molecular target: T1, human CD4, membrane-bound on cells …; assay: FACS, fresh blood CD4+ T cells of subject M3; free CD4 sites left by dB4 detected by dB4C7-Alexa (250 ng/mL)
[14] = molecular target: T1, human CD4, membrane-bound on cells …; assay: FACS direct binding to HPB-ALL cells, on ice 1 h, goat F(ab)2 anti-huIgG Fc-FITC; EC50 by MFI, mean of 3
Protocol: as §2, §3

B1: mAb dB4C7 (human deimmunized, Fc-aglycosylated IgG1 derived from murine mAb B4, expressed by clone 7) (antibody, V domains shown)
VH: QVQLVQSGPELKKPGASVKVSCKASGYTFTDYVIHWVKQATGQGLEWIGEIYPGSGSAYSNAKFKDRVTMTADKSSNTAYMELSSLTSDDTAVYFCARRGNGTGFAYWGQGTLVTVSS
VL: DIVLTQSPASLAVSLGQRATITCKAGQSVDYDGDSYMNWYQQKPGQPPKLLIYVASNLESGIPARFSGSGSGTDFTLNIHPVEENDAATYYCQQSYKDPLTFGQGTKLEIKR
modifications: N-glycosylated at Asn101 in the Fv; Fc N-glycosylation site removed (N298H)
notes: treated as one molecule; also called deimmunized B4
EC50 [1]: 4.7 ng/mL | EC50 [2]: 3.7 ng/mL | EC50 [3]: 45.7 ng/mL | EC50 [4]: 3.7 ng/mL | Kd [5]: 0.057 nM and 0.0086 µg/mL | EC50 [6]: 40.7 ng/mL | EC50 [7]: 43.7 ng/mL | EC50 [8]: 42.1 ng/mL | Kd [9]: 0.0047 µg/mL and 0.031 nM | EC50 [10]: 5.7 ng/mL | EC50 [11]: 4.1 ng/mL | EC50 [12]: 4.8 ng/mL | EC50 [13]: 3.3 ng/mL | EC50 [14]: 42.2 ng/mL
